From article PMC2119506

Molecular target: CSVTCG binding protein (human (endogenous in A549))
Assay: radioligand binding

- percent inhibition of binding: 64 % inhibition
Substance: thrombospondin (from UniProt P07996 19-1170) (natural protein)
